In US20230220021A1 (UNIVERSITY OF COPENHAGEN, published 2023):
Where two headings read alike, the source gives them in different places. [ ]: non-standard residue; d: D form.

What was measured:
Assay in all cases: FP competition
[1] = target: T1, (7× His)-PSD-95-PDZ2 wild type (UniProt P78352 160-246)
T1 construct: domain: PDZ2; recombinant from E. coli; also called PSD-95-PDZ2 WT; not shown: 7x His tag

[2] = target: T1, (7× His)-PSD-95-PDZ2 wild type; remark: listed apart in the source
Procedure: Fluorescence polarization (FP). FP assays were performed in a 384-well plate format. Fluorescence polarization was measured using a Safire 2 plate reader. The instrument Z-factor was optimized for each assay. The G-factor was calibrated to an initial milli polarization value of 20. […] Every measurement was performed in NaPI 50 mM, 50 mM NaCl and 1% BSA at pH 7.2, 25° C. […] The curves were done in triplicates. Then, the polarization was fitted into a one-site binding model using Prism software 8.0 (GraphPad), from which the Kd can be measured. […] The mili polarization (mP) values were plotted as a function of peptide concentration and fitted to a sigmoidal dose-response curve using Prism software 8.0 (GraphPad). The Kᵢ values were calculated according to Nikolovska-Coleska Z. et al.⁴⁰⁻⁴¹

[3] = target: T1, (7× His)-PSD-95-PDZ2 wild type; remark: listed apart in the source
Procedure: Fluorescence polarization (FP). FP assays were performed in a 384-well plate format. Fluorescence polarization was measured using a Safire 2 plate reader. The instrument Z-factor was optimized for each assay. The G-factor was calibrated to an initial milli polarization value of 20. […] Every measurement was performed in NaPI 50 mM, 50 mM NaCl and 1% BSA at pH 7.2, 25° C. […] The curves were done in triplicates. […] The mili polarization (mP) values were plotted as a function of peptide concentration and fitted to a sigmoidal dose-response curve using Prism software 8.0 (GraphPad). The Kᵢ values were calculated according to Nikolovska-Coleska Z. et al.⁴⁰⁻⁴¹

T1 sequence (P78352 160-246): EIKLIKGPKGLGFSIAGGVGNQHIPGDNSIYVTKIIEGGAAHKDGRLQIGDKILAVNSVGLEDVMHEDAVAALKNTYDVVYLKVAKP

Binder	Ki [2] [nM]	Ki [3] [nM]	Relative Ki (Ki mut/Ki WT) [3]	also measured
cyclo(THLETTFGDGTPKTIRVTQ[dP]GQ) (SMILES CC[C@H](C)[C@@H]1NC(=O)[C@H]([C@@H](C)O)NC(=O)[C@H](CCCCN)NC(=O)[C@@H]2CCCN2C(=O)[C@H]([C@@H](C)O)NC(=O)CNC(=O)[C@H](CC(=O)O)NC(=O)CNC(=O)[C@H](Cc2ccccc2)NC(=O)[C@H]([C@@H](C)O)NC(=O)[C@H]([C@@H](C)O)NC(=O)[C@H](CCC(=O)O)NC(=O)[C@H](CC(C)C)NC(=O)[C@H](Cc2c[nH]cn2)NC(=O)[C@H]([C@@H](C)O)NC(=O)[C@H](CCC(N)=O)NC(=O)CNC(=O)[C@H]2CCCN2C(=O)[C@H](CCC(N)=O)NC(=O)[C@H]([C@@H](C)O)NC(=O)[C@H](C(C)C)NC(=O)[C@H](CCCNC(=N)N)NC1=O) [cyclic nNOS β-hairpin peptide ΔT112]	–	–	–	Ki [1]: 690 nM
cyclo(THLETTFTGGTPKTIRVTQ[dP]GQ) (SMILES CC[C@H](C)[C@@H]1NC(=O)[C@H]([C@@H](C)O)NC(=O)[C@H](CCCCN)NC(=O)[C@@H]2CCCN2C(=O)[C@H]([C@@H](C)O)NC(=O)CNC(=O)CNC(=O)[C@H]([C@@H](C)O)NC(=O)[C@H](Cc2ccccc2)NC(=O)[C@H]([C@@H](C)O)NC(=O)[C@H]([C@@H](C)O)NC(=O)[C@H](CCC(=O)O)NC(=O)[C@H](CC(C)C)NC(=O)[C@H](Cc2c[nH]cn2)NC(=O)[C@H]([C@@H](C)O)NC(=O)[C@H](CCC(N)=O)NC(=O)CNC(=O)[C@H]2CCCN2C(=O)[C@H](CCC(N)=O)NC(=O)[C@H]([C@@H](C)O)NC(=O)[C@H](C(C)C)NC(=O)[C@H](CCCNC(=N)N)NC1=O) [cyclic nNOS β-hairpin peptide ΔD114]	–	–	–	Ki [1]: 700 nM
THLETTFTGDGTPKTIRXTQPGQ (cyclic; D-Pro; N-methyl Val 122) [cyclic nNOS β-hairpin peptide N-Me-V122]	6170	–	–	–
THLETTFTGXGTPKTIRVTQPGQ (cyclic; D-Pro; N-methyl Asp 114) [cyclic nNOS β-hairpin peptide N-Me-D114]	620	–	–	–
THLETTFTXDGTPKTIRVTQPGQ (cyclic; D-Pro; N-methyl Gly 113) [cyclic nNOS β-hairpin peptide N-Me-G113]	6190	–	–	–
THLETXFTGDGTPKTIRVTQPGQ (cyclic; D-Pro; N-methyl Thr 110) [cyclic nNOS β-hairpin peptide N-Me-T110]	1470	–	–	–
THLETTFXGDGTPKTIRVTQPGQ (cyclic; D-Pro; N-methyl Thr 112) [cyclic nNOS β-hairpin peptide N-Me-T112]	1080	–	–	–
THLETTFTGDXTPKTIRVTQPGQ (cyclic; D-Pro; N-methyl Gly 115) [cyclic nNOS β-hairpin peptide N-Me-G115]	820	–	–	–
THLETTFTGDGXPKTIRVTQPGQ (cyclic; D-Pro; N-methyl Thr 116) [cyclic nNOS β-hairpin peptide N-Me-T116]	930	–	–	–
THLETTFTGDGTPKXIRVTQPGQ (cyclic; D-Pro; N-methyl Thr 119) [cyclic nNOS β-hairpin peptide N-Me-T119]	4880	–	–	–
THLETTFTGDGTPKTIXVTQPGQ (cyclic; D-Pro; N-methyl Arg 121) [cyclic nNOS β-hairpin peptide N-Me-R121]	990	–	–	–
THLETTFTGDGTPKTIRVTXPGQ (cyclic; D-Pro; N-methyl Gln 124) [cyclic nNOS β-hairpin peptide N-Me-Q124]	2200	–	–	–
cyclo(AHLETTFTGDGTPKTIRVTQ[dP]GQ) (SMILES CC[C@H](C)[C@@H]1NC(=O)[C@H]([C@@H](C)O)NC(=O)[C@H](CCCCN)NC(=O)[C@@H]2CCCN2C(=O)[C@H]([C@@H](C)O)NC(=O)CNC(=O)[C@H](CC(=O)O)NC(=O)CNC(=O)[C@H]([C@@H](C)O)NC(=O)[C@H](Cc2ccccc2)NC(=O)[C@H]([C@@H](C)O)NC(=O)[C@H]([C@@H](C)O)NC(=O)[C@H](CCC(=O)O)NC(=O)[C@H](CC(C)C)NC(=O)[C@H](Cc2c[nH]cn2)NC(=O)[C@H](C)NC(=O)[C@H](CCC(N)=O)NC(=O)CNC(=O)[C@H]2CCCN2C(=O)[C@H](CCC(N)=O)NC(=O)[C@H]([C@@H](C)O)NC(=O)[C@H](C(C)C)NC(=O)[C@H](CCCNC(=N)N)NC1=O) [cyclic nNOS β-hairpin peptide T105A]	–	1500	1	–
THLETTFTGDGTPKTXRVTQPGQ (cyclic; D-Pro; N-methyl Ile 120) [cyclic nNOS β-hairpin peptide N-Me-I120]	1120	–	–	–

More lines, main results first:

Ki [2] [nM]	Ki [3] [nM]	Relative Ki (Ki mut/Ki WT) [3]	Binder	also measured
–	3930	2.62	cyclo(THLETAFTGDGTPKTIRVTQ[dP]GQ) (SMILES CC[C@H](C)[C@@H]1NC(=O)[C@H]([C@@H](C)O)NC(=O)[C@H](CCCCN)NC(=O)[C@@H]2CCCN2C(=O)[C@H]([C@@H](C)O)NC(=O)CNC(=O)[C@H](CC(=O)O)NC(=O)CNC(=O)[C@H]([C@@H](C)O)NC(=O)[C@H](Cc2ccccc2)NC(=O)[C@H](C)NC(=O)[C@H]([C@@H](C)O)NC(=O)[C@H](CCC(=O)O)NC(=O)[C@H](CC(C)C)NC(=O)[C@H](Cc2c[nH]cn2)NC(=O)[C@H]([C@@H](C)O)NC(=O)[C@H](CCC(N)=O)NC(=O)CNC(=O)[C@H]2CCCN2C(=O)[C@H](CCC(N)=O)NC(=O)[C@H]([C@@H](C)O)NC(=O)[C@H](C(C)C)NC(=O)[C@H](CCCNC(=N)N)NC1=O) [cyclic nNOS β-hairpin peptide T110A]	–
–	1550	1.03	cyclo(THLETTFTGDGTPKTIRVAQ[dP]GQ) (SMILES CC[C@H](C)[C@@H]1NC(=O)[C@H]([C@@H](C)O)NC(=O)[C@H](CCCCN)NC(=O)[C@@H]2CCCN2C(=O)[C@H]([C@@H](C)O)NC(=O)CNC(=O)[C@H](CC(=O)O)NC(=O)CNC(=O)[C@H]([C@@H](C)O)NC(=O)[C@H](Cc2ccccc2)NC(=O)[C@H]([C@@H](C)O)NC(=O)[C@H]([C@@H](C)O)NC(=O)[C@H](CCC(=O)O)NC(=O)[C@H](CC(C)C)NC(=O)[C@H](Cc2c[nH]cn2)NC(=O)[C@H]([C@@H](C)O)NC(=O)[C@H](CCC(N)=O)NC(=O)CNC(=O)[C@H]2CCCN2C(=O)[C@H](CCC(N)=O)NC(=O)[C@H](C)NC(=O)[C@H](C(C)C)NC(=O)[C@H](CCCNC(=N)N)NC1=O) [cyclic nNOS β-hairpin peptide T123A]	–
–	2230	1.49	cyclo(THLETTFTGDGTPKTIRATQ[dP]GQ) (SMILES CC[C@H](C)[C@@H]1NC(=O)[C@H]([C@@H](C)O)NC(=O)[C@H](CCCCN)NC(=O)[C@@H]2CCCN2C(=O)[C@H]([C@@H](C)O)NC(=O)CNC(=O)[C@H](CC(=O)O)NC(=O)CNC(=O)[C@H]([C@@H](C)O)NC(=O)[C@H](Cc2ccccc2)NC(=O)[C@H]([C@@H](C)O)NC(=O)[C@H]([C@@H](C)O)NC(=O)[C@H](CCC(=O)O)NC(=O)[C@H](CC(C)C)NC(=O)[C@H](Cc2c[nH]cn2)NC(=O)[C@H]([C@@H](C)O)NC(=O)[C@H](CCC(N)=O)NC(=O)CNC(=O)[C@H]2CCCN2C(=O)[C@H](CCC(N)=O)NC(=O)[C@H]([C@@H](C)O)NC(=O)[C@H](C)NC(=O)[C@H](CCCNC(=N)N)NC1=O) [cyclic nNOS β-hairpin peptide V122A]	–
–	1240	0.83	cyclo(THLETTFTGDGAPKTIRVTQ[dP]GQ) (SMILES CC[C@H](C)[C@@H]1NC(=O)[C@H]([C@@H](C)O)NC(=O)[C@H](CCCCN)NC(=O)[C@@H]2CCCN2C(=O)[C@H](C)NC(=O)CNC(=O)[C@H](CC(=O)O)NC(=O)CNC(=O)[C@H]([C@@H](C)O)NC(=O)[C@H](Cc2ccccc2)NC(=O)[C@H]([C@@H](C)O)NC(=O)[C@H]([C@@H](C)O)NC(=O)[C@H](CCC(=O)O)NC(=O)[C@H](CC(C)C)NC(=O)[C@H](Cc2c[nH]cn2)NC(=O)[C@H]([C@@H](C)O)NC(=O)[C@H](CCC(N)=O)NC(=O)CNC(=O)[C@H]2CCCN2C(=O)[C@H](CCC(N)=O)NC(=O)[C@H]([C@@H](C)O)NC(=O)[C@H](C(C)C)NC(=O)[C@H](CCCNC(=N)N)NC1=O) [cyclic nNOS β-hairpin peptide T116A]	–
–	1770	1.18	cyclo(THLETTFAGDGTPKTIRVTQ[dP]GQ) (SMILES CC[C@H](C)[C@@H]1NC(=O)[C@H]([C@@H](C)O)NC(=O)[C@H](CCCCN)NC(=O)[C@@H]2CCCN2C(=O)[C@H]([C@@H](C)O)NC(=O)CNC(=O)[C@H](CC(=O)O)NC(=O)CNC(=O)[C@H](C)NC(=O)[C@H](Cc2ccccc2)NC(=O)[C@H]([C@@H](C)O)NC(=O)[C@H]([C@@H](C)O)NC(=O)[C@H](CCC(=O)O)NC(=O)[C@H](CC(C)C)NC(=O)[C@H](Cc2c[nH]cn2)NC(=O)[C@H]([C@@H](C)O)NC(=O)[C@H](CCC(N)=O)NC(=O)CNC(=O)[C@H]2CCCN2C(=O)[C@H](CCC(N)=O)NC(=O)[C@H]([C@@H](C)O)NC(=O)[C@H](C(C)C)NC(=O)[C@H](CCCNC(=N)N)NC1=O) [cyclic nNOS β-hairpin peptide T112A]	–
–	17000	11.3	cyclo(THLETTFTGDGTPKAIRVTQ[dP]GQ) (SMILES CC[C@H](C)[C@@H]1NC(=O)[C@H](C)NC(=O)[C@H](CCCCN)NC(=O)[C@@H]2CCCN2C(=O)[C@H]([C@@H](C)O)NC(=O)CNC(=O)[C@H](CC(=O)O)NC(=O)CNC(=O)[C@H]([C@@H](C)O)NC(=O)[C@H](Cc2ccccc2)NC(=O)[C@H]([C@@H](C)O)NC(=O)[C@H]([C@@H](C)O)NC(=O)[C@H](CCC(=O)O)NC(=O)[C@H](CC(C)C)NC(=O)[C@H](Cc2c[nH]cn2)NC(=O)[C@H]([C@@H](C)O)NC(=O)[C@H](CCC(N)=O)NC(=O)CNC(=O)[C@H]2CCCN2C(=O)[C@H](CCC(N)=O)NC(=O)[C@H]([C@@H](C)O)NC(=O)[C@H](C(C)C)NC(=O)[C@H](CCCNC(=N)N)NC1=O) [cyclic nNOS β-hairpin peptide T119A]	–
